This is an account of results in paper doi:10.1101/2019.12.12.872739.

For this experiment, the target named is LecB-biotin (Pseudomonas aeruginosa lectin LecB, biotinylated) (Pseudomonas aeruginosa) (UniProt Q9HYN5). Put plainly: pull-down.

“β1-integrin (glycosylated, endogenous in MDCK cells) (receptor)” yielded a percent of total β1-integrin extracted by LecB-biotin of 75%.
